These results are taken from article PMC11770808, “Interplay between conformational dynamics and substrate binding regulates enzymatic activity: a single-molecule FRET study” (Chemical Science, 2025).

The data set deals with T1, Nc1ncnc2c1ncn2[C@@H]1O[C@H](COP(=O)(O)OP(=O)(O)O)[C@@H](O)[C@H]1O.
T1 construct: purified recombinant, details only in ESI
The data set can be described thus: coupled assay (hexokinase / glucose-6-phosphate dehydrogenase), initial velocities fitted to Michaelis-Menten. The format is biochemical, Escherichia coli. Particulars: backward reaction, 0 M urea, dye-labelled enzyme (A73C/V142C background inferred), 50 mM Tris-HCl pH 8.0, 100 mM KCl, 10 mM MgCl2.

Consider “adenylate kinase (AK), wild-type (WT) (Escherichia coli K-12; A73C/V142C)”, for which the Km is listed as 1340(±98) µM.
